For one substance, occupancy of EF-G in the complexes results are on record in PMC3272701.

This test deals with tight-coupled 70S ribosome from Thermus thermophilus (Thermus thermophilus). As to the kind of experiment: co-sedimentation.

As for “elongation factor G (EF-G), Thermus thermophilus HB8 (from UniProt Q5SHN5 1-691) (enzyme)”, the occupancy of EF-G in the complexes is 60 to 70%.
